This passage reports binding signal results from US20140087436.

Substitutions are numbered along the chain they refer to.

Holding throughout (assay): EMSA
In general terms: A gel shift assay detects complexes by their altered migration in electrophoresis.

The target in data set [1] is T1, CbbR G98R (Ralstonia eutropha) (UniProt P42722).
T1 sequence: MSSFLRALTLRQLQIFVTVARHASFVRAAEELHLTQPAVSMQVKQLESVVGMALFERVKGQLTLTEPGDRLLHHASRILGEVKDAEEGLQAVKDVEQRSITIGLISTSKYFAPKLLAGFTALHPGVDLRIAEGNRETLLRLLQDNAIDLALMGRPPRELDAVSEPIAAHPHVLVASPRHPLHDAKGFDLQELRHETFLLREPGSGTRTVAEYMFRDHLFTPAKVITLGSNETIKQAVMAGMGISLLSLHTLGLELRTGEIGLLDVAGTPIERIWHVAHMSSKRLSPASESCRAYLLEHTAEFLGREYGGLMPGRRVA
The note with it: fold change in affinity with 400 uM PEP vs no metabolite; RuBP 1.2, ATP 0.99.

For data set [2], the target named is T2, CbbR R154H R154H (Ralstonia eutropha) (UniProt P42722).
T2 sequence: T1 sequence with R98G, R154H
To be noted: fold change in affinity with 400 uM PEP vs no metabolite; RuBP 0.68, ATP 1.2.

Data set [3] addresses T3, CbbR R272Q (Ralstonia eutropha) (UniProt P42722).
T3 sequence: T1 sequence with R98G, R272Q
To be noted: fold change in affinity with 400 uM PEP vs no metabolite; RuBP 0.76, ATP 1.4; printed R272O in table.

Data set [4] concerns the target T4, CbbR R135C R135C (Ralstonia eutropha) (UniProt P42722).
T4 sequence: T1 sequence with R98G, R135C
To be noted: fold change in affinity with 400 uM PEP vs no metabolite; RuBP 0.59, ATP 1.3.

Data set [5] has as its target T5, CbbR wild type (Ralstonia eutropha) (UniProt P42722).
T5 sequence: T1 sequence with R98G
To be noted: fold change in affinity with 400 uM PEP vs no metabolite; RuBP 2.3, ATP 3.2, NADPH 1.5, RU5P 0.91, FBP 0.96.

On to cbb promoter probe, 246 bp chromosomal, for which the binding signal in data set [1] worked out at 2.7 fold; in data set [2], 1.3 fold; in data set [3] it was 0.85 fold; in data set [4], 0.97 fold; in data set [5] it was 3.8 fold.
